In article PMC7416497:

Biological target: T1, ETS1 ΔN279 (UniProt P14921 279-441)
T1 sequence: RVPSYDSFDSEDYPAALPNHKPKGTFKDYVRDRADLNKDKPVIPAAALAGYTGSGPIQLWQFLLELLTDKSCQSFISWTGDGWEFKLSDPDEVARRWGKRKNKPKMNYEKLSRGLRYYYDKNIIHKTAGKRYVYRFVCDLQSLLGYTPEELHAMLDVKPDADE
Assay: EMSA

B1: SC1 (dsDNA)
DNA 1: TCGACGGCCAAGCCGGAAGTGAGTGCC
DNA 2: TCGAGGCACTCACTTCCGGCTTGGCCG
Work on B1 yielded a Kd of 0.4 nM.
